The results in this text go back to article PMC6796926, “Pioneering function of Isl1 in the epigenetic control of cardiomyocyte cell fate”.

Data set [1] addresses T1, Isl1 homeodomain (Isl1-HD) (UniProt P61372 181-240).
T1 sequence: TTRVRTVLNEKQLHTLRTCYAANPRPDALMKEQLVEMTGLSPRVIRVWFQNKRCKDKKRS
As to the kind of experiment: competition; 80x excess vs free and nucleosomal Ttn DNA, 0.5 uM Isl1; 40 mM KCl, 15 mM HEPES pH 8.0, 1 mM EDTA, 0.5 mM DTT, 2 mM MgCl2, 5% glycerol, 10 ng/ul poly dI/dC, 0.1 mg/ml BSA, 30 min, RT; 4% PAGE in 0.5x TBE. Conditions: protein: recombinant; tags: 6xHis; blunt.

In data set [2] the target is T1, Isl1 homeodomain (Isl1-HD). As to the kind of experiment: EMSA; 0-1 uM Isl1; 40 mM KCl, 15 mM HEPES pH 8.0, 1 mM EDTA, 0.5 mM DTT, 2 mM MgCl2, 5% glycerol, 10 ng/ul poly dI/dC, 0.1 mg/ml BSA, 30 min, RT; 4% PAGE in 0.5x TBE. To be noted: protein: recombinant; tags: 6xHis; label: biotin (PCR primers); blunt.

B1: specific competitor (Insulin enhancer) (dsDNA)
DNA 1: CCCTTGTTAAGACTCTAATTACCCTAG
DNA 2: CTAGGGTAATTAGAGTCTTAACAAGGG
Take B1: the binding result in data set [1] is “binds”.

B2: free Ttn DNA (dsDNA)
DNA 1: CGGTGTCTGCTATCACTCAGTTTCATCCCTTTCTTCCCAAATGGCCAGTTTCATGTTGTGTATCTTGACAGTGACTCCCAACCAGAGACTCCTGTTAAGGGAACTTGTCAGTCATAATAGACAATAAGTGAACTTCTTGTTCGGGGTGCTCAATAATTTGCT
DNA 2: AGCAAATTATTGAGCACCCCGAACAAGAAGTTCACTTATTGTCTATTATGACTGACAAGTTCCCTTAACAGGAGTCTCTGGTTGGGAGTCACTGTCAAGATACACAACATGAAACTGGCCATTTGGGAAGAAAGGGATGAAACTGAGTGATAGCAGACACCG
For B2, the binding result in data set [2] was “binds”.

B3: nonspecific competitor (NS) (dsDNA)
DNA 1: CAAGCAAAACAAACCA
DNA 2: TGGTTTGTTTTGCTTG
As for B3, the binding result in data set [1] is “no binding”.
